The source of these data is publication PMC8905165.

The test concerns the target GMPCPP microtubules containing 7% rhodamine-tubulin. Description: single-molecule TIRF microscopy on immobilised microtubules; GMPCPP microtubules held on the coverslip by anti-β-tubulin antibodies, motors in solution (CENP-E483-2mNeon 50 nM, CENP-E483LZ-2mNeon 5 nM, CENP-E754-2mNeon 3.5 nM, CENP-EFL-mNeon 12.5 nM; landing rates at 3.5 nM); 80 mM PIPES pH 6.9, 5 mM MgCl2, 2 mM ATP, 1 mM DTT, oxygen scavenger mix; 30°C; residency time is the decay constant of a single-exponential fit.

“CENP-E483LZ-2mNeon (from UniProt Q02224 1-483)” had a residency time on the microtubule of 6.36 s.
For the substance “full-length human CENP-E-mNeonGreen, Q02224 1-2701”, the landing rate (events µm^−1 min^−1) is 0.147 and the residency time on the microtubule was 37.1 s.
